Data reported in publication PMC7641761.
Substitutions are numbered along the chain they refer to.

How the values were obtained:
[1] = molecular target: T1, Ku70/Ku80 heterodimer FL (baculovirus) (human, UniProt P12956;P13010 1-609;1-718); experiment: MST; Hill 1.75; MST: 50 mM Tris pH 8.0, 50 mM NaCl, 1 mM DTT, 24 C, 40 nM FAM-RNA; EMSA: 25 mM Hepes-KOH pH 7.5, 50 mM NaCl, 1 mM DTT, 1 mM EDTA, 10% glycerol, 0.1 uM BSA, room temperature, 25 min; settings: protein: recombinant; tags: His (Ku80); copies: 1;1; label: 5'-FAM; blunt
[2] = molecular target: T1, Ku70/Ku80 heterodimer FL (baculovirus); experiment: MST; MST: 50 mM Tris pH 8.0, 50 mM NaCl, 1 mM DTT, 24 C, 40 nM FAM-RNA; EMSA: 25 mM Hepes-KOH pH 7.5, 50 mM NaCl, 1 mM DTT, 1 mM EDTA, 10% glycerol, 0.1 uM BSA, room temperature, 25 min; settings: protein: recombinant, tags: His (Ku80), copies: 1;1, label: 5'-FAM
[3] = molecular target: T2, Ku70/Ku80 heterodimer FL (baculovirus);XLF (human;human?, UniProt P12956;P13010;Q9H9Q4 1-609;1-718;1-299, |); experiment: EMSA; supershift; MST: 50 mM Tris pH 8.0, 50 mM NaCl, 1 mM DTT, 24 C, 40 nM FAM-RNA; EMSA: 25 mM Hepes-KOH pH 7.5, 50 mM NaCl, 1 mM DTT, 1 mM EDTA, 10% glycerol, 0.1 uM BSA, room temperature, 25 min; settings: protein: recombinant;recombinant, tags: His (Ku80);, copies: 1;1;2, label: 5'-FAM
Ku5D = Ku5D (human, UniProt P12956;P13010 1-609;1-718, T305D;S306D;T307D;S314D;T316D); experiment: MST; 20-fold weaker than WT; MST: 50 mM Tris pH 8.0, 50 mM NaCl, 1 mM DTT, 24 C, 40 nM FAM-RNA; EMSA: 25 mM Hepes-KOH pH 7.5, 50 mM NaCl, 1 mM DTT, 1 mM EDTA, 10% glycerol, 0.1 uM BSA, room temperature, 25 min; settings: protein: recombinant; copies: 1;1; label: 5'-FAM on strand 1; fork; 42-mer/29-mer
[4] = molecular target: T1, Ku70/Ku80 heterodimer FL (baculovirus); experiment: MST; Hill 1.0; MST: 50 mM Tris pH 8.0, 50 mM NaCl, 1 mM DTT, 24 C, 40 nM FAM-RNA; EMSA: 25 mM Hepes-KOH pH 7.5, 50 mM NaCl, 1 mM DTT, 1 mM EDTA, 10% glycerol, 0.1 uM BSA, room temperature, 25 min; settings: protein: recombinant; tags: His (Ku80); copies: 1;1; label: 5'-FAM stated for MST RNAs
[5] = molecular target: T1, Ku70/Ku80 heterodimer FL (baculovirus); experiment: EMSA; Ku preparation not stated; MST: 50 mM Tris pH 8.0, 50 mM NaCl, 1 mM DTT, 24 C, 40 nM FAM-RNA; EMSA: 25 mM Hepes-KOH pH 7.5, 50 mM NaCl, 1 mM DTT, 1 mM EDTA, 10% glycerol, 0.1 uM BSA, room temperature, 25 min; settings: protein: recombinant; tags: His (Ku80); copies: 1;1; label: 5'-FAM; G4
Ku dCTR = Ku dCTR (human, UniProt P12956;P13010 1-609;1-569); experiment: MST; MST: 50 mM Tris pH 8.0, 50 mM NaCl, 1 mM DTT, 24 C, 40 nM FAM-RNA; EMSA: 25 mM Hepes-KOH pH 7.5, 50 mM NaCl, 1 mM DTT, 1 mM EDTA, 10% glycerol, 0.1 uM BSA, room temperature, 25 min; settings: protein: recombinant; copies: 1;1; label: 5'-FAM; hairpin with bulge
[6] = molecular target: T2, Ku70/Ku80 heterodimer FL …; experiment: EMSA; supershift; Ku preparation not stated; MST: 50 mM Tris pH 8.0, 50 mM NaCl, 1 mM DTT, 24 C, 40 nM FAM-RNA; EMSA: 25 mM Hepes-KOH pH 7.5, 50 mM NaCl, 1 mM DTT, 1 mM EDTA, 10% glycerol, 0.1 uM BSA, room temperature, 25 min; settings: protein: recombinant;recombinant; tags: His (Ku80);; copies: 1;1;2; label: 3'-FAM on lower strand; blunt
[7] = molecular target: Ku70/Ku80 heterodimer FL (baculovirus);PAXX (human;human?, UniProt P12956;P13010;Q9BUH6 1-609;1-718;1-204, |); experiment: EMSA; supershift; MST: 50 mM Tris pH 8.0, 50 mM NaCl, 1 mM DTT, 24 C, 40 nM FAM-RNA; EMSA: 25 mM Hepes-KOH pH 7.5, 50 mM NaCl, 1 mM DTT, 1 mM EDTA, 10% glycerol, 0.1 uM BSA, room temperature, 25 min; settings: protein: recombinant;recombinant; tags: His (Ku80);GST cleaved; copies: 1;1;2; label: 3'-FAM on lower strand; blunt
Sequence of Ku70/Ku80 heterodimer FL (baculovirus);PAXX (P12956 whole entry, chain 1 of 3): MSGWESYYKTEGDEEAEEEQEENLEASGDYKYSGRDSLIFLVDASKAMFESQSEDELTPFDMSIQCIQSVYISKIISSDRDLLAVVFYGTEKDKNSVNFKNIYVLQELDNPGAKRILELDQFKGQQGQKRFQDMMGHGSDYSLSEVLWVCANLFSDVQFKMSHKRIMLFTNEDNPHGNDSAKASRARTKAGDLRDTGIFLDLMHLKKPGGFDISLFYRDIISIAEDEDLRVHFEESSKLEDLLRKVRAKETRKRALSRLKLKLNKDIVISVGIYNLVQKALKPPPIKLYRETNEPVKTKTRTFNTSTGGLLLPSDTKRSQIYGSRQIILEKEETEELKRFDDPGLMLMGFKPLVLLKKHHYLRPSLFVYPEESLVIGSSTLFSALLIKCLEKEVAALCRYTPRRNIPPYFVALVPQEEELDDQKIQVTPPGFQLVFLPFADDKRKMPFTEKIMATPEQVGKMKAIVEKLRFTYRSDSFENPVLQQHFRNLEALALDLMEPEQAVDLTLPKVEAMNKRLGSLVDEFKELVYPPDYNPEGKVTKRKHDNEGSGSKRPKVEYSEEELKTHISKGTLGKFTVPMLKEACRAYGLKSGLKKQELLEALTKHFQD
Sequence of Ku70/Ku80 heterodimer FL (baculovirus);PAXX (P13010 1-718, chain 2 of 3): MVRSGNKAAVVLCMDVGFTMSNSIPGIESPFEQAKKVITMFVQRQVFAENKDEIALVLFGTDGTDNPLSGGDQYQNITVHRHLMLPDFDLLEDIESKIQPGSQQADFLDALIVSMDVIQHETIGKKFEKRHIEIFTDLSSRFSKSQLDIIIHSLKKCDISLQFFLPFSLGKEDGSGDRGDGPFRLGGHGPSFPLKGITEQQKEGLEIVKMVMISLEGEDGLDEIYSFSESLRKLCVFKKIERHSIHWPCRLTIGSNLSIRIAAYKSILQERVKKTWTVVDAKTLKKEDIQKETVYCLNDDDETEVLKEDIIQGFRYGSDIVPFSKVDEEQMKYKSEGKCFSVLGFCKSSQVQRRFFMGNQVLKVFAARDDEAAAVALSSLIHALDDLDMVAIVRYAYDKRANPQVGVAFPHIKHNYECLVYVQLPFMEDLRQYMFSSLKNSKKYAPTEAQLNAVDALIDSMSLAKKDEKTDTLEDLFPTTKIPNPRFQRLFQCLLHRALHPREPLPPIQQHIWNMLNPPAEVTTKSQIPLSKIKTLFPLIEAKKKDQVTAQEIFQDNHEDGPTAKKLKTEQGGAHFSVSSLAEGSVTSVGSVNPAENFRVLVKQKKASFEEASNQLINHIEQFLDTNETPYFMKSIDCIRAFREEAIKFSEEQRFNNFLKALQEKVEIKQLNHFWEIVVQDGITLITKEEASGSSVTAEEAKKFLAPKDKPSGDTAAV
Sequence of Ku70/Ku80 heterodimer FL (baculovirus);PAXX (Q9BUH6 whole entry, chain 3 of 3): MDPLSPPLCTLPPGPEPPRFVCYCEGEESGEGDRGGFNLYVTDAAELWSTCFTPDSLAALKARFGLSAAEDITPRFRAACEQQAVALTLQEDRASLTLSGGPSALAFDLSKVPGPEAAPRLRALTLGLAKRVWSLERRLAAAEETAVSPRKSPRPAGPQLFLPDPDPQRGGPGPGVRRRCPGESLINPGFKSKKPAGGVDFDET

T1 sequence (P12956 whole entry, chain 1 of 2): as the sequence (P12956 whole entry, chain 1 of 3) above
T1 sequence (P13010 1-718, chain 2 of 2): as the sequence (P13010 1-718, chain 2 of 3) above
T2 sequence (P12956 whole entry, chain 1 of 3): as the sequence (P12956 whole entry, chain 1 of 3) above
T2 sequence (P13010 1-718, chain 2 of 3): as the sequence (P13010 1-718, chain 2 of 3) above
T2 sequence (Q9H9Q4 whole entry, chain 3 of 3): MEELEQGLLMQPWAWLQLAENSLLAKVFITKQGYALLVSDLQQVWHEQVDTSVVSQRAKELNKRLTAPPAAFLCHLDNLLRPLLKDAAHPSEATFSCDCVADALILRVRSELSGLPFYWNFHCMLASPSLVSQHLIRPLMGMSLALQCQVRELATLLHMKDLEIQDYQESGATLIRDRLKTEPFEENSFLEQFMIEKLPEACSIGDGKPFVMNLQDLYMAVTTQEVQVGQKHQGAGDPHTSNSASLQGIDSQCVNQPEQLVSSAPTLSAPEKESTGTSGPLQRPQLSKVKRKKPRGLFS
Sequence of Ku dCTR (P12956 whole entry, chain 1 of 2): as the sequence (P12956 whole entry, chain 1 of 3) above
Sequence of Ku dCTR (P13010 1-569, chain 2 of 2): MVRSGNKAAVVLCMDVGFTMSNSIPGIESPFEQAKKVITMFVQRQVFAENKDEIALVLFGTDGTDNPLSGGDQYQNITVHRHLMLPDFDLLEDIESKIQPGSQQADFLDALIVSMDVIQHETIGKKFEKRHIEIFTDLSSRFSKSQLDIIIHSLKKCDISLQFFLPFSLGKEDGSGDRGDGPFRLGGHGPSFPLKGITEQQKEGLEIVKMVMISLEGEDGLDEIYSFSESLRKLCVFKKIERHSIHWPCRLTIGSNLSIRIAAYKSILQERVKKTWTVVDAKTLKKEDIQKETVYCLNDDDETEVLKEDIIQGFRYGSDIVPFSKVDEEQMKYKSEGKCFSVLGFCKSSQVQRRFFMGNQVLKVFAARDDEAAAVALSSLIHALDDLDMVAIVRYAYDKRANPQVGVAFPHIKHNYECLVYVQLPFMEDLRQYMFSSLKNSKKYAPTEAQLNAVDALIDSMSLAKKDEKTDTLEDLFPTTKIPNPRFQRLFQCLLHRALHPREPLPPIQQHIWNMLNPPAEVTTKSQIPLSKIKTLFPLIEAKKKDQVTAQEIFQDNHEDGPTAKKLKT
Sequence of Ku5D (P12956 whole entry T305D/S306D/T307D/S314D/T316D, chain 1 of 2): as the sequence (P12956 whole entry, chain 1 of 3) above, with T305D, S306D, T307D, S314D, T316D counted along it
Sequence of Ku5D (P13010 1-718, chain 2 of 2): as the sequence (P13010 1-718, chain 2 of 3) above

B1: d50 DNA (dsDNA)
DNA 1: CTCTTGGTGATTATGGTTGCAATACATTTAATTTCATTATCAATTAG
DNA 2: CTAATTGATAATGAAATTAAATGTATTGCAACCATAATCACCAAGAG
In the case of B1, the Kd [1] is reported as 19 ± 19 nM.

B2: SL3-LM (structured_RNA)
RNA: AAGGCUAGACCGGGGGCUCGCAUUUCUUUUUUUGCAGCUGCCACUGCCA
For B2, the Kd ([2]; hairpin) was 2370 ± 1040 nM.

B3: LINP1 GQ1 (structured_RNA)
RNA: CCUGGGGUAGGAGAGGGUAUGGGGACCAGGGCACU
For B3, the binding result ([3]; G4) was “binds” and the Kd ([2]; G4) was 110 ± 40 nM.

B4: TERRA G-quadruplex (structured_RNA)
RNA: UAGGGUUAGGGU
In the case of B4, the Kd ([2]; G4 (multimeric)) is reported as 430 ± 180 nM.

B5: Fork substrate (dsDNA)
DNA 1: CGCGCCCAGCTTTCCCAGCTAATAAACTAAAAACTCCTAAGG
DNA 2: CCTTAGGAGTTTTTAGTTTATTGGGCGCG
Binder B5 has a Kd (Ku5D) of ~15000 nM.

B6: LINP1 (1-300) (structured_RNA)
RNA: CCCUCCGUCUCCUUGACUCUGGGUGGGCUGUGUGACUUUUCCUUGCUCAAUAGAAUGAGAAGGAGGUGGCGCACCGGCUACAAGGCUAGACCGGGGGCUCGCAUAUCUCCACUUGCAGCUGCCACUGCCAUUAGAAGAACUUGCUCAGCCAGCUCCUGGGCCCCAGGAAAAGGACAAGUGUCACCCAGAACAGAGCCACCUCCAGCUGCACUCAGCUCCAGAAGCUGGCCCAGCCGGUCCAGUACACCUUUUAAAUAAUGUCCUCUACGUGCCGGUGUGGAAGUAGCCCGGAUGCAAUUG
For B6, the Kd [4] was 1920 ± 330 nM.

B7: DNA G-quadruplex (structured_DNA)
DNA: TTAGGGTTAGGGTTAGGGTTAGGG
B7: no binding [5].

B8: SL1 (structured_RNA)
RNA: CCCUCCGUCUCCUUGACUCUGGG
In the case of B8, the Kd ([2]; hairpin) is reported as 1690 ± 700 nM.

B9: SL2 (structured_RNA)
RNA: UGACUUUUCCUUGCUCAAUAGAAUGAGAAGGAGGUGGCG
With B9 the binding result ([3]; hairpin with bulge) was “binds”, the Kd (Ku dCTR) was 1020 ± 180 nM and the Kd ([2]; hairpin with bulge) was 900 ± 170 nM.

B10: 25bp duplex DNA (dsDNA)
DNA 1: AGCATTGACTGGCATCGTAGCATCC
DNA 2: GGATGCTACGATGCCAGTCAATGCT
B10: binds [6]; binds [7].

B11: SL3 (structured_RNA)
RNA: B2 RNA with U24A, U28C, U29C, U30A, U31C
With B11 the binding result ([3]; hairpin with bulge) was “binds” and the Kd ([2]; hairpin with bulge) was 840 ± 450 nM.

B12: SL2-BT (structured_RNA)
RNA: UGACUGGAGGAAGGAGUAUAGAAACUCUUCCUUUUGGCG
B12 gave a Kd ([2]; hairpin) of 6050 ± 9400 nM.

B13: SL2-LM (structured_RNA)
RNA: UGACUUUUCCUUGCUCAUUUUUUUGAGAAGGAGGUGGCG
Binder B13 has a Kd ([2]; hairpin) of 1620 ± 470 nM.

B14: SL3-BT (structured_RNA)
RNA: AACCGUAGACCCCGUCGACCGUUAUCUCCACUACGUCGGGGGACUGGGA
In the case of B14, the Kd ([2]; hairpin) is reported as 1870 ± 360 nM.
